This passage reports pKa results from paper PMC12634842.

The target in this data set is Cys151 (UniProt position 151, SMGEKCVLHVM). The data set can be described thus: chemical modification (fluorescence detection). To be noted: 25 °C; 15 mM acetate/15 mM MES/30 mM Tris; Reduced (DTT-treated, desalted) free BTB domain, folded, no ligand.

The term pKa denotes the negative logarithm of the acid dissociation constant. For “Kelch-like ECH-associated protein 1 (KEAP1), BTB domain (Homo sapiens; S172A)”, the pKa worked out at 6.90 ± 0.05.
